Among the data in publication PMC11316256 are bound beads per 100 cells (beads per 100 cells), ADCC (% specific release) of NK-92 cells expressing the CD177-263K431G allele against SKOV-3 cells with trastuzumab 5 μg/ml, E:T 20:1 and ADCC (% specific release) of NK-92 cells expressing the CD177-263K431R allele against SKOV-3 cells with trastuzumab 5 μg/ml, E:T 20:1; failed to mediate ADCC values, retold here.

The target of test [1] is CD177 (allele 263K431G) on 293 cells (human) (UniProt Q8N6Q3). The test is described as follows: bead-rosette formation; hIgG coupled to M-450 Epoxy Dynabeads, mixed with 293 cells at 3.5 beads per cell; beads on cells with two or more beads counted from one hundred random cells.
Chain of CD177 (allele 263K431G) on 293 cells (human) (Q8N6Q3 22-408): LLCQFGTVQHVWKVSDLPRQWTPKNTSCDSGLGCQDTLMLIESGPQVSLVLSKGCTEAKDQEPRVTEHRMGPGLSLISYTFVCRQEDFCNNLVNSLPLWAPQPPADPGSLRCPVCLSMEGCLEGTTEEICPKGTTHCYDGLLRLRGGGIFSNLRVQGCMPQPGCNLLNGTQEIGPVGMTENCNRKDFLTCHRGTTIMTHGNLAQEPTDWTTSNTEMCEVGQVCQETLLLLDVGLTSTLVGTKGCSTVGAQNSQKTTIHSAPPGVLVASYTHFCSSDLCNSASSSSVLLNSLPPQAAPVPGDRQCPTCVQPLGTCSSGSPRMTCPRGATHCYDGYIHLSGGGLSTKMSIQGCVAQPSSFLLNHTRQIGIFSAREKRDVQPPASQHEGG
Test [2] shares this target.
Test [3] addresses CD177 (allele 263K431R) on 293 cells (human) (UniProt Q8N6Q3).

Chain of CD177 (allele 263K431R) on 293 cells (human) (Q8N6Q3 22-408): as above

In the case of Human serum IgG (hIgG) (antibody), the bound beads per 100 cells (beads per 100 cells) in test [1] came out at 123.

In turn, Trastuzumab/Herceptin (antibody) registered an ADCC (% specific release) of NK-92 cells expressing the CD177-263K431G allele against SKOV-3 cells with trastuzumab 5 μg/ml, E:T 20:1 in test [2] of 8.93%. For the same substance, in test [3], the ADCC (% specific release) of NK-92 cells expressing the CD177-263K431R allele against SKOV-3 cells with trastuzumab 5 μg/ml, E:T 20:1; failed to mediate ADCC amounted to 0.11%.
